{"source": "IntAct's records for PubMed 31515488", "parents": {"B1": {"name": "NUT family member 2F (Homo sapiens), A1L443 (parent)", "chain": "MASNGAYPVLGPGVTVNPGTSLSVFTALPFATPAPGPAHRPPLVTAVVPPAGPLVLSAFPSTPLVAGQDGRGPSGAGASNVFVQMRTEVGPVKPPQAQTLILTQAPLVWQAPGTLCGGVMCPPPLLLAAAPGVPVTSAQVVGGTQACEGGWSHGLPLPPPPPAAQVAPIVSPGNARPWPQGAHGEGSLAPSQAKARPDDSCKPKSVYENFRLWQHYKPLARRHLPQSPDTEALSCFLIPVLRSLARRKPTMTLEEGLWQAMREWQHTSNFDRMIFYEMAEKFLEFEAEEEMQIQKSQWMKGPQSLPPPAPPRLEPRGPPAPEVVKQPVYLPSKDGPKAPTACLPPPRPQRPAETKAHLPPPRPQRPAETNAHLPPPRPQRPAETKVPEEIPPEVVQEYVDIMEELLGSHPGDTGEPEGQREKGKVEQPQEEDGITSDPGLLSYIDKLCSQEDFVTKVEAVIHPRFLEELLSPDPQMDFLALSQELEQEEGLTLAQLVEKRLLSLKEKGCGRAAPRHGTARLDSSPSEFAAGQEAAREVPDPQQRVSVETSPPQTAAQDPQGQGRVRTGMARSEDPAVLLGCQDSPRLKAVRPTSPPQDHRPTCPGLGTKDALGLPGESPVKESHGLAKGSSEETELPGMVYVVGSHHRLRPWRLSQSPVPSSGLLSPGGRGPQGALQSPSAQKRGLSPSPSPASKSKKRPLFGSPSPAEKTPHPGPGLRVSGEQSLAWGLGGPSQSQKRKGDPLASRRKKKRHCSQ", "partner": "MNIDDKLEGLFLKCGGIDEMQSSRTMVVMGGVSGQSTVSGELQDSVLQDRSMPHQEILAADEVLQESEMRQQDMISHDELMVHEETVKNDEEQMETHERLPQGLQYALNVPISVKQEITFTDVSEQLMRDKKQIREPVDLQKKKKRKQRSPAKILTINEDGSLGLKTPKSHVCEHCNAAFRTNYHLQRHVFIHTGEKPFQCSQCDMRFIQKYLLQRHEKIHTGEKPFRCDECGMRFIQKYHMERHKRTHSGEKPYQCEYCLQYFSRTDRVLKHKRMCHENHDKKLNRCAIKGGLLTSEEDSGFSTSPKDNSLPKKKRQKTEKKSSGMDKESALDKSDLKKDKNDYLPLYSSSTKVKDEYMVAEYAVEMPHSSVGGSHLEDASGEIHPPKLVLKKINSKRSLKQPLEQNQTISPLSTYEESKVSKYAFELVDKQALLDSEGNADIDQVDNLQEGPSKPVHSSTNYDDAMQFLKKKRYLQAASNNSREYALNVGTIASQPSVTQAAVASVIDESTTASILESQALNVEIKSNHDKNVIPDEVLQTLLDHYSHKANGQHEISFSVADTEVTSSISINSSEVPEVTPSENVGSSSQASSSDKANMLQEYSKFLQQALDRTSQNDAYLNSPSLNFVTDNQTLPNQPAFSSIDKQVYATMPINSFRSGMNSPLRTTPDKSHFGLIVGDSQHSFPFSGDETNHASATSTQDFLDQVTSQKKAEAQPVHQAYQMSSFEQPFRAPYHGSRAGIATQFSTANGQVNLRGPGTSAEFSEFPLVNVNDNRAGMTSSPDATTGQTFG"}, "B2": {"name": "Transcription initiation factor IIA subunit 1 (Homo sapiens), P52655-1 (parent)", "chain": "MANSANTNTVPKLYRSVIEDVINDVRDIFLDDGVDEQVLMELKTLWENKLMQSRAVDGFHSEEQQLLLQVQQQHQPQQQQHHHHHHHQQAQPQQTVPQQAQTQQVLIPASQQATAPQVIVPDSKLIQHMNASNMSAAATAATLALPAGVTPVQQILTNSGQLLQVVRAANGAQYIFQPQQSVVLQQQVIPQMQPGGVQAPVIQQVLAPLPGGISPQTGVIIQPQQILFTGNKTQVIPTTVAAPTPAQAQITATGQQQPQAQPAQTQAPLVLQVDGTGDTSSEEDEDEEEDYDDDEEEDKEKDGAEDGQVEEEPLNSEDDVSDEEGQELFDTENVVVCQYDKIHRSKNKWKFHLKDGIMNLNGRDYIFSKAIGDAEW"}, "B3": {"name": "U6 snRNA-associated Sm-like protein LSm7 (Homo sapiens), Q9UK45 (parent)", "chain": "MADKEKKKKESILDLSKYIDKTIRVKFQGGREASGILKGFDPLLNLVLDGTIEYMRDPDDQYKLTEDTRQLGLVVCRGTSVVLICPQDGMEAIPNPFIQQQDA", "partner": "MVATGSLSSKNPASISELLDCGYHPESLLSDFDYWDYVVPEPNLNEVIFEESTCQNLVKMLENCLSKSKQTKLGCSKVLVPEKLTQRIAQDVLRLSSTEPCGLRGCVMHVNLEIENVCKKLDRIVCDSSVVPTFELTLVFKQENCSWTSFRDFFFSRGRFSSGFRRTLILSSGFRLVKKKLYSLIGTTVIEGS"}, "B4": {"name": "E3 ubiquitin-protein ligase SH3RF2 (Homo sapiens), Q8TEC5 (parent)", "chain": "MDDLTLLDLLECPVCFEKLDVTAKVLPCQHTFCKPCLQRVFKAHKELRCPECRTPVFSNIEALPANLLLVRLLDGVRSGQSSGRGGSFRRPGTMTLQDGRKSRTNPRRLQASPFRLVPNVRIHMDGVPRAKALCNYRGQNPGDLRFNKGDIILLRRQLDENWYQGEINGISGNFPASSVEVIKQLPQPPPLCRALYNFDLRGKDKSENQDCLTFLKDDIITVISRVDENWAEGKLGDKVGIFPILFVEPNLTARHLLEKNKGRQSSRTKNLSLVSSSSRGNTSTLRRGPGSRRKVPGQFSITTALNTLNRMVHSPSGRHMVEISTPVLISSSNPSVITQPMEKADVPSSCVGQVSTYHPAPVSPGHSTAVVSLPGSQQHLSANMFVALHSYSAHGPDELDLQKGEGVRVLGKCQDGWLRGVSLVTGRVGIFPNNYVIPIFRKTSSFPDSRSPGLYTTWTLSTSSVSSQGSISEGDPRQSRPFKSVFVPTAIVNPVRSTAGPGTLGQGSLRKGRSSMRKNGSLQRPLQSGIPTLVVGSLRRSPTMVLRPQQFQFYQPQGIPSSPSAVVVEMGSKPALTGEPALTCISRGSEAWIHSAASSLIMEDKEIPIKSEPLPKPPASAPPSILVKPENSRNGIEKQVKTVRFQNYSPPPTKHYTSHPTSGKPEQPATLKASQPEAASLGPEMTVLFAHRSGCHSGQQTDLRRKSALGKATTLVSTASGTQTVFPSK", "partner": "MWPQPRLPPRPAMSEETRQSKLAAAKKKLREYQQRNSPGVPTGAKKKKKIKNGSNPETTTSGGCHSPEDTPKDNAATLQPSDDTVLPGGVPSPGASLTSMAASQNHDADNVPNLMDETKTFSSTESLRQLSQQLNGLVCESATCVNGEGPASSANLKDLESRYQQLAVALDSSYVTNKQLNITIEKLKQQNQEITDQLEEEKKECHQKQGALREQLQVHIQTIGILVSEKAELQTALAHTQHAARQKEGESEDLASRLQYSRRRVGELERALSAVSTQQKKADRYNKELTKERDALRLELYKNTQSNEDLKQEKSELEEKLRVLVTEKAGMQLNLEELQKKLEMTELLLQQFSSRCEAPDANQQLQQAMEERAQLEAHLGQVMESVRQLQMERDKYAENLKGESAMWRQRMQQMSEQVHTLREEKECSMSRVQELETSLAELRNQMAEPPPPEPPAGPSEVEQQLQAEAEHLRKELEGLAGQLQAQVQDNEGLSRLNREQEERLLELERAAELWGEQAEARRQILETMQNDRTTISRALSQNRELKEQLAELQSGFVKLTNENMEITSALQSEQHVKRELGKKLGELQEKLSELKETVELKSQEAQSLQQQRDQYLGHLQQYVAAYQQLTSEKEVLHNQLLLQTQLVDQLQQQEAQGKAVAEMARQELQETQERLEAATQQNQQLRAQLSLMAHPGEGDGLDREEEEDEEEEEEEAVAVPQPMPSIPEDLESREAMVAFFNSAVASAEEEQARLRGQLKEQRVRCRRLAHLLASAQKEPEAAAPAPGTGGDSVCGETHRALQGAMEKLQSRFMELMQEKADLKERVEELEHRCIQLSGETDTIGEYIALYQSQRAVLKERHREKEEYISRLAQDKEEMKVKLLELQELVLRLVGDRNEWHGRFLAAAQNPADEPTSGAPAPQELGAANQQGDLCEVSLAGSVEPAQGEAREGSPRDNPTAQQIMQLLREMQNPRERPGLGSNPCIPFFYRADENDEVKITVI"}, "B5": {"name": "Protein SSX5 (Homo sapiens), O60225 (parent)", "chain": "MNGDDAFVRRPRVGSQIPEKMQKAFDDIAKYFSEKEWEKMKASEKIIYVYMKRKYEAMTKLGFKATLPPFMRNKRVADFQGNDFDNDPNRGNQVEHPQMTFGRLQGIFPKITPEKPAEEGNDSKGVPEASGPQNNGKQLRPSGKLNTSEKVNKTSGPKRGKHAWTHRVRERKQLVIYEEISDPQEDDE"}, "B6": {"name": "Rab-like protein 2A (Homo sapiens), Q9UBK7 (parent)", "chain": "MAEDKTKPSELDQGKYDADDNVKIICLGDSAVGKSKLMERFLMDGFQPQQLSTYALTLYKHTATVDGKTILVDFWDTAGQERFQSMHASYYHKAHACIMVFDIQRKVTYRNLSTWYTELREFRPEIPCIVVANKIDDINVTQKSFNFAKKFSLPLYFVSAADGTNVVKLFNDAIRLAVSYKQNSQDFMDEIFQELENFSLEQEEEDVPDQEQSSSIETPSEEVASPHS", "partner": "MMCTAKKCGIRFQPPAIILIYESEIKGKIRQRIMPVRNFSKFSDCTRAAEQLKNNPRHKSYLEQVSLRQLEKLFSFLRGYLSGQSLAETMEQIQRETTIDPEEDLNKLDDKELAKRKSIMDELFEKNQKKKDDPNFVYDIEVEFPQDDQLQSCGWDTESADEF"}, "B7": {"name": "Filamin-binding LIM protein 1 (Homo sapiens), Q8WUP2 (parent)", "chain": "MASKPEKRVASSVFITLAPPRRDVAVAEEVRQAVCEARRGRPWEAPAPMKTPEAGLAGRPSPWTTPGRAAATVPAAPMQLFNGGCPPPPPVLDGEDVLPDLDLLPPPPPPPPVLLPSEEEAPAPMGASLIADLEQLHLSPPPPPPQAPAEGPSVQPGPLRPMEEELPPPPAEPVEKGASTDICAFCHKTVSPRELAVEAMKRQYHAQCFTCRTCRRQLAGQSFYQKDGRPLCEPCYQDTLERCGKCGEVVRDHIIRALGQAFHPSCFTCVTCARCIGDESFALGSQNEVYCLDDFYRKFAPVCSICENPIIPRDGKDAFKIECMGRNFHENCYRCEDCRILLSVEPTDQGCYPLNNHLFCKPCHVKRSAAGCC", "partner": "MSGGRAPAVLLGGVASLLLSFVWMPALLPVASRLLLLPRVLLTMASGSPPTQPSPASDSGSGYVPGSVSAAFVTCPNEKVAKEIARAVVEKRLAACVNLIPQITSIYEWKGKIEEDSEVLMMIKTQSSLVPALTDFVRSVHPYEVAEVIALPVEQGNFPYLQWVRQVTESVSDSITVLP"}, "B8": {"name": "Endothelial transcription factor GATA-2 (Homo sapiens), P23769 (parent)", "chain": "MEVAPEQPRWMAHPAVLNAQHPDSHHPGLAHNYMEPAQLLPPDEVDVFFNHLDSQGNPYYANPAHARARVSYSPAHARLTGGQMCRPHLLHSPGLPWLDGGKAALSAAAAHHHNPWTVSPFSKTPLHPSAAGGPGGPLSVYPGAGGGSGGGSGSSVASLTPTAAHSGSHLFGFPPTPPKEVSPDPSTTGAASPASSSAGGSAARGEDKDGVKYQVSLTESMKMESGSPLRPGLATMGTQPATHHPIPTYPSYVPAAAHDYSSGLFHPGGFLGGPASSFTPKQRSKARSCSEGRECVNCGATATPLWRRDGTGHYLCNACGLYHKMNGQNRPLIKPKRRLSAARRAGTCCANCQTTTTTLWRRNANGDPVCNACGLYYKLHNVNRPLTMKKEGIQTRNRKMSNKSKKSKKGAECFEELSKCMQEKSSPFSAAALAGHMAPVGHLPPFSHSGHILPTPTPIHPSSSLSFGHPHPSSMVTAMG", "partner": "B4 partner"}}, "data": [{"variants_of": "B1", "settings": "with zn148_human ZNF148, Q9UQR1", "values": [{"variant": "N370K", "effect of a mutation on the interaction": "with no effect"}]}, {"variants_of": "B2", "settings": "with nfya_human NFYA", "values": [{"variant": "L30V", "effect of a mutation on the interaction": "with no effect"}]}, {"variants_of": "B3", "settings": "with ddt4l_human DDIT4L", "values": [{"variant": "G78A", "effect of a mutation on the interaction": "with no effect"}]}, {"variants_of": "B4", "settings": "with goga2_human GOLGA2, Q08379", "values": [{"variant": "V687I", "effect of a mutation on the interaction": "with no effect"}]}, {"variants_of": "B5", "settings": "with atrap_human AGTRAP", "values": [{"variant": "K20N", "effect of a mutation on the interaction": "with no effect"}]}, {"variants_of": "B6", "settings": "with cep19_human CEP19, Q96LK0", "values": [{"variant": "R82Q", "effect of a mutation on the interaction": "with no effect"}, {"variant": "T53M", "effect of a mutation on the interaction": "with no effect"}, {"variant": "L119F", "effect of a mutation on the interaction": "with no effect"}, {"variant": "A94T", "effect of a mutation on the interaction": "with no effect"}]}, {"variants_of": "B7", "settings": "with cuta_human CUTA", "values": [{"variant": "Y204C", "effect of a mutation on the interaction": "disrupting interaction strength"}]}, {"variants_of": "B8", "settings": "with goga2_human GOLGA2, Q08379", "values": [{"variant": "A164T", "effect of a mutation on the interaction": "with no effect"}]}]}
